Measurements taken from patent US20050064507.

Assays:
[1] = biological target: T1, ARHGAP4 peptide AGPLRKSSLKKGGRL (SEQ ID NO:98) (not fully specified)
T1 chain: AGPLRKSSLKKGGRL

[2] = biological target: T2, ARHGAP6 peptide SAQITIPKDGQKRKKSLRKK (SEQ ID NO:156) (not fully specified)
T2 chain: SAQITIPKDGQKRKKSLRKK

[3] = biological target: T3, CACNA1C peptide RGFLRSASLGRRASFHLE (SEQ ID NO:96) (not fully specified)
T3 chain: RGFLRSASLGRRASFHLE

[4] = biological target: T4, CHRM1 peptide RKIPKRPGSVHRTPSRQ (SEQ ID NO:83) (not fully specified)
T4 chain: RKIPKRPGSVHRTPSRQ

[5] = biological target: T5, CREB1 peptide EILSRRPSYRKILND (SEQ ID NO:106) (not fully specified)
T5 chain: EILSRRPSYRKILND

[6] = biological target: T6, EBNA1BP2 peptide KRPGKKGSNKRPGKR (SEQ ID NO:112) (not fully specified)
T6 chain: KRPGKKGSNKRPGKR

[7] = biological target: T7, ERN1 peptide KLAVGRHSFSRRSGV (SEQ ID NO:94) (not fully specified)
T7 chain: KLAVGRHSFSRRSGV

[8] = biological target: T8, FLJ20574 peptide GENVLKKSMKSRVKG (SEQ ID NO:113) (not fully specified)
T8 chain: GENVLKKSMKSRVKG

[9] = biological target: T9, MARCKS peptide KKRFSFKKSFKLSGFSFKKN (SEQ ID NO:123) (not fully specified)
T9 chain: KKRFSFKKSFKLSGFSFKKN

[10] = biological target: T10, MARCKS peptide PSPSNETPKKKKKRFSFKKS (SEQ ID NO:157) (not fully specified)
T10 chain: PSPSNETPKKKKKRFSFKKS

[11] = biological target: T11, MCM2 peptide VQRHRSMRKTFARYLSFRRD (SEQ ID NO:129) (not fully specified)
T11 chain: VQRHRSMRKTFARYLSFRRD

[12] = biological target: T12, MGC2941 peptide RPTPGDGEKRSRIKKSKKRK (SEQ ID NO:139) (not fully specified)
T12 chain: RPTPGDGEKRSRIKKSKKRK

[13] = biological target: T13, MLK3 peptide QQVDRERPHVRRRRGTFKRS (SEQ ID NO:128) (not fully specified)
T13 chain: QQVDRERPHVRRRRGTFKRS

[14] = biological target: T14, Myt1 kinase peptide PPRTPGWHQLQPRRVSFRGE (SEQ ID NO:163) (not fully specified)
T14 chain: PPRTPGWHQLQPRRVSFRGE

[15] = biological target: T15, NCF1 peptide GAPPRRSSIRNAH (SEQ ID NO:101) (not fully specified)
T15 chain: GAPPRRSSIRNAH

[16] = biological target: T16, NMDAR1 peptide RAITSTLASSFKRRR (SEQ ID NO:122) (not fully specified)
T16 chain: RAITSTLASSFKRRR

[17] = biological target: T17, PKD1 peptide RVVQSVKHTKRKSSTVMK (SEQ ID NO:149) (not fully specified)
T17 chain: RVVQSVKHTKRKSSTVMK

[18] = biological target: T18, PRKCA peptide RFARKGSLRQKNV (SEQ ID NO:85) (not fully specified)
T18 chain: RFARKGSLRQKNV

[19] = biological target: T19, PSCD2 peptide AARKKRISVKKKQEQ (SEQ ID NO:93) (not fully specified)
T19 chain: AARKKRISVKKKQEQ

[20] = biological target: T20, Urotensin-2 receptor peptide LYARLARAYRRSQRASFKRA (SEQ ID NO:159) (not fully specified)
T20 chain: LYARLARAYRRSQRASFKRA

[21] = biological target: T21, beta adducin peptide PSKSPSKKKKKFRTPSFLKK (SEQ ID NO:137) (not fully specified)
T21 chain: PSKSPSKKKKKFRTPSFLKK

[22] = biological target: T22, calcium channel, voltage-dependent, L type, alpha peptide RDIRQSPKRGFLRSASLGRR (SEQ ID NO:147) (not fully specified)
T22 chain: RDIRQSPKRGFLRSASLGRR

[23] = biological target: T23, cyclophilin G peptide TEEKSKKRKKKHRKNSRKHK (SEQ ID NO:165) (not fully specified)
T23 chain: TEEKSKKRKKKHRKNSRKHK

[24] = biological target: T24, dag kinase iota peptide PQNSLKASNRKKKRTSFKRK (SEQ ID NO:151) (not fully specified)
T24 chain: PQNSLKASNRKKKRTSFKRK

[25] = biological target: T25, dag kinase zeta peptide KKKKRASFKRKSSKKG (SEQ ID NO:114) (not fully specified)
T25 chain: KKKKRASFKRKSSKKG

[26] = biological target: T26, nuclear RNA export factor 3 peptide VRYTPYTISPYNRKGSFRKQ (SEQ ID NO:143) (not fully specified)
T26 chain: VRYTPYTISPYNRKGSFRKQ

[27] = biological target: T27, p164-RhoGEF peptide PRLIRRGSKKRPAR (SEQ ID NO:82) (not fully specified)
T27 chain: PRLIRRGSKKRPAR

[28] = biological target: T28, phospholemman peptide EEGTFRSSIRRLSTRRR (SEQ ID NO:116) (not fully specified)
T28 chain: EEGTFRSSIRRLSTRRR

[29] = biological target: T29, plectin peptide PLKEKKRERKTSSKSSVRKR (SEQ ID NO:125) (not fully specified)
T29 chain: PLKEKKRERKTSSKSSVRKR

[30] = biological target: T30, ribosomal protein S6 peptide AKRRRLSSLRASTSK (SEQ ID NO:120) (not fully specified)
T30 chain: AKRRRLSSLRASTSK

B1: PKC-theta (protein)
chain: MSPFLRIGLSNFDCGSCQSCQGEAVNPYCAVLVKEYVESENGQMYIQKKPTMYPPWDSTFDAHINKGRVMQIIVKGKNVDLISETTVELYSLAERCRKNNGKTEIWLELKPQGRMLMNARYFLEMSDTKDMNEFETEGFFALHQRRGAIKQAKVHHVKCHEFTATFFPQPTFCSVCHEFVWGLNKQGYQCRQCNAAIHKKCIDKVIAKCTGSAINSRETMFHKERFKIDMPHRFKVYNYKSPTFCEHCGTLLWGLARQGLKCDACGMNVHHRCQTKVANLCGINQKLMAEALAMIESTQQARCLRDTEQIFREGPVEIGLPCSIKNEARPPCLPTPGKREPQGISWESPLDEVDKMCHLPEPELNKERPSLQIKLKIEDFILHKMLGKGSFGKVFLAEFKKTNQFFAIKALKKDVVLMDDDVECTMVEKRVLSLAWEHPFLTHMFCTFQTKENLFFVMEYLNGGDLMYHIQSCHKFDLSRATFYAAEIILGLQFLHSKGIVYRDLKLDNILLDKDGHIKIADFGMCKENMLGDAKTNTFCGTPDYIAPEILLGQKYNHSVDWWSFGVLLYEMLIGQSPFHGQDEEELFHSIRMDNPFYPRWLEKEAKDLLVKLFVREPEKRLGVRGDIRQHPLFREINWEELERKEIDPPFRPKVKSPFDCSNFDKEFLNEKPRLSFADRALINSMDQNMFRNFSFMNPGMERLIS
- in vitro phosphorylation (% of best substrate) [1]: 22
- in vitro phosphorylation, 1 uM peptide (% of best substrate) [2]: 18
- in vitro phosphorylation, 10 uM peptide (% of best substrate) [2]: 23
- in vitro phosphorylation (% of best substrate) [3]: 21
- in vitro phosphorylation (% of best substrate) [4]: 92
- in vitro phosphorylation (% of best substrate) [5]: 19
- in vitro phosphorylation (% of best substrate) [6]: 17
- in vitro phosphorylation (% of best substrate) [7]: 86
- in vitro phosphorylation (% of best substrate) [8]: 10
- in vitro phosphorylation, 1 uM peptide (% of best substrate) [9]: 47
- in vitro phosphorylation, 10 uM peptide (% of best substrate) [9]: 32
- in vitro phosphorylation, 1 uM peptide (% of best substrate) [10]: 20
- in vitro phosphorylation, 10 uM peptide (% of best substrate) [10]: 23
- in vitro phosphorylation, 1 uM peptide (% of best substrate) [11]: 48
- in vitro phosphorylation, 10 uM peptide (% of best substrate) [11]: 25
- in vitro phosphorylation, 1 uM peptide (% of best substrate) [12]: 31
- in vitro phosphorylation, 10 uM peptide (% of best substrate) [12]: 17
- in vitro phosphorylation, 1 uM peptide (% of best substrate) [13]: 41
- in vitro phosphorylation, 10 uM peptide (% of best substrate) [13]: 59
- in vitro phosphorylation, 1 uM peptide (% of best substrate) [14]: 14
- in vitro phosphorylation, 10 uM peptide (% of best substrate) [14]: 11
- in vitro phosphorylation (% of best substrate) [15]: 29
- in vitro phosphorylation, 1 uM peptide (% of best substrate) [16]: 66
- in vitro phosphorylation, 10 uM peptide (% of best substrate) [16]: 42
- in vitro phosphorylation, 1 uM peptide (% of best substrate) [17]: 13
- in vitro phosphorylation, 10 uM peptide (% of best substrate) [17]: 14
- in vitro phosphorylation (% of best substrate) [18]: 46
- in vitro phosphorylation (% of best substrate) [19]: 40
- in vitro phosphorylation, 1 uM peptide (% of best substrate) [20]: 21
- in vitro phosphorylation, 10 uM peptide (% of best substrate) [20]: 17
- in vitro phosphorylation, 1 uM peptide (% of best substrate) [21]: 40
- in vitro phosphorylation, 10 uM peptide (% of best substrate) [21]: 19
- in vitro phosphorylation, 1 uM peptide (% of best substrate) [22]: 20
- in vitro phosphorylation, 10 uM peptide (% of best substrate) [22]: 69
- in vitro phosphorylation, 1 uM peptide (% of best substrate) [23]: 16
- in vitro phosphorylation, 10 uM peptide (% of best substrate) [23]: 14
- in vitro phosphorylation, 1 uM peptide (% of best substrate) [24]: 25
- in vitro phosphorylation, 10 uM peptide (% of best substrate) [24]: 19
- in vitro phosphorylation, 1 uM peptide (% of best substrate) [25]: 100
- in vitro phosphorylation, 10 uM peptide (% of best substrate) [25]: 86
- in vitro phosphorylation, 1 uM peptide (% of best substrate) [26]: 25
- in vitro phosphorylation, 10 uM peptide (% of best substrate) [26]: 27
- in vitro phosphorylation (% of best substrate) [27]: 49
- in vitro phosphorylation, 1 uM peptide (% of best substrate) [28]: 83
- in vitro phosphorylation, 10 uM peptide (% of best substrate) [28]: 78
- in vitro phosphorylation, 1 uM peptide (% of best substrate) [29]: 39
- in vitro phosphorylation, 10 uM peptide (% of best substrate) [29]: 100
- in vitro phosphorylation, 1 uM peptide (% of best substrate) [30]: 51
- in vitro phosphorylation, 10 uM peptide (% of best substrate) [30]: 51
